{"source": "patent US20240108653A1", "about": "(UNIVERSITY OF UTAH RESEARCH FOUNDATION, published 2024)", "data": [{"molecular_target": "T1, Leucine-Rich Repeat and Ig Domain Protein 1 (LINGO1) (UniProt Q96FE5 42-620, limits assumed)", "T1 construct": "whole, on cells; It is endogenous on Ewing sarcoma cell lines and transduced in K562 cells", "T1 sequence (looked up)": "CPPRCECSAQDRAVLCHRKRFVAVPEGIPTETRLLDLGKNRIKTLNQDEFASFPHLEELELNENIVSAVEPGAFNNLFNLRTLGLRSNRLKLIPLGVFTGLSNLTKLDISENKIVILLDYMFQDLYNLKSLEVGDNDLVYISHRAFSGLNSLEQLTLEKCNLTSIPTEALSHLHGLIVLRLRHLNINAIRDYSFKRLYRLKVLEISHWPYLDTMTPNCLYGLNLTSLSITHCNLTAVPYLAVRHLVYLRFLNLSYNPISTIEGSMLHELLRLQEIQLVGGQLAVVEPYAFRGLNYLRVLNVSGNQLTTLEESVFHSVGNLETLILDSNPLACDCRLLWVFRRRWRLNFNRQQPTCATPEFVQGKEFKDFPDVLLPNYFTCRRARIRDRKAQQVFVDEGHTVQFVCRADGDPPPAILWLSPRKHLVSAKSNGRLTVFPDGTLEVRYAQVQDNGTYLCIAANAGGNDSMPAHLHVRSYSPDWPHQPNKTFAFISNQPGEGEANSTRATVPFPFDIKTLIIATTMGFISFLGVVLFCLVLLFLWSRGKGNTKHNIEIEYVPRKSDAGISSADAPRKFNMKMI", "experiment": "flow cytometry on Ewing sarcoma cell lines; scFv detected with anti-FLAG/APC secondary antibody", "description": "FIGS. 4A-4I show LINGO1-specific CAR T cells show cytotoxic activity against Ewing sarcoma. (FIG. 4A) mRNA expression of LINGO1 and GAPDH housekeeping gene in Ewing sarcoma cell lines and healthy brain tissue as determined by RT-PCR. (FIG. 4B) Schema of CAR construct and four LINGO1-specific scFv domains (FIG. 4C) Binding of LINGO1-specific scFvs at 5 µg/ml and secondary staining with an anti-FLAG/APC antibody (clone: L5). against Ewing sarcoma cell lines as determined by flow cytometry. Secondary antibody alone is shown in grey. (FIG. 4D) LINGO1 CAR surface expression on primary T cells after staining with an anti-HA/APC antibody as determined by flow cytometry. (FIG. 4E) IFNγ secretion as determined by ELISA and (FIG. 4F) anti-tumor activity as determined by luminescence-based cytotoxicity assay of CAR T cells expressing LINGO1 CAR variants after 24 h co-culture with A673 cells at an effector-target ratio of 1:1. (FIG. 4G) Expansion of LINGO1 CAR T cells based on Li81 VLVH and T cels expressing a CAR without a binding domain (ΔscFv). (FIG. 4H) IFNγ and IL2 production as determined by ELISA and (FIG. 4I) anti-tumor activity as determined by luminescence-based cytotoxicity assay by LINGO1 CAR T cells after 24 h co-culture with Ewing sarcoma cell lines at different effector-target ratios. Data represent mean±SD from 3 technical replicates. Statistical significance was determined by two-sided Student's t test.\nCAR T cells targeting LINGO1 for the treatment of Ewing sarcoma were developed.", "values": [{"binder": "Li81 scFv, VLVH orientation (scFv, It was detected with an anti-FLAG/APC antibody, so it carried a FLAG tag; also called Li81 VLVH; LINGO1-specific scFv) scFv: DIQMTQSPATLSLSPGERATLSCRASQSVSSYLAWYQQKPGQAPRLLIYDASNRATGIPARFSGSGSGTDFTLTISSLEPEDFAVYYCQQRSNWPMYTFGQGTKLEIKGGGGSGGGGSGGGGSEVQLLESGGGLVQPGGSLRLSCAASGFTFSAYEMKWVRQAPGKGLEWVSVIGPSGGFTFYADSVKGRFTISRDNSKNTLYLQMNSLRAEDTAVYYCATEGDNDAFDIWGQGTTVTVSS", "binding result": "binds"}, {"binder": "Li81 scFv, VHVL orientation (scFv, It was detected with an anti-FLAG/APC antibody, so it carried a FLAG tag; also called Li81 VHVL; LINGO1-specific scFv) scFv: EVQLLESGGGLVQPGGSLRLSCAASGFTFSAYEMKWVRQAPGKGLEWVSVIGPSGGFTFYADSVKGRFTISRDNSKNTLYLQMNSLRAEDTAVYYCATEGDNDAFDIWGQGTTVTVSSGGGGSGGGGSGGGGSDIQMTQSPATLSLSPGERATLSCRASQSVSSYLAWYQQKPGQAPRLLIYDASNRATGIPARFSGSGSGTDFTLTISSLEPEDFAVYYCQQRSNWPMYTFGQGTKLEIK", "binding result": "binds"}, {"binder": "Li62 scFv, VLVH orientation (scFv, It was detected with an anti-FLAG/APC antibody, so it carried a FLAG tag; also called Li62 VLVH; LINGO1-specific scFv) scFv: DIQMTQSPSFLSASVGDSVAITCRASQDISRYLAWYQQRPGKAPKLLIYDASNLQTGVPSRFSGSGSGTDFTFTITSLQPEDFGTYYCQQYDTLHPSFGPGTTVDIKGGGGSGGGGSGGGGSEVQLLESGGGLVQPGGSLRLSCAASGFTFSIYPMFWVRQAPGKGLEWVSWIGPSGGITKYADSVKGRFTISRDNSKNTLYLQMNSLRAEDTATYYCAREGHNDWYFDLWGRGTLVTVSS", "binding result": "binds"}, {"binder": "Li62 scFv, VHVL orientation (scFv, It was detected with an anti-FLAG/APC antibody, so it carried a FLAG tag; also called Li62 VHVL; LINGO1-specific scFv) scFv: EVQLLESGGGLVQPGGSLRLSCAASGFTFSIYPMFWVRQAPGKGLEWVSWIGPSGGITKYADSVKGRFTISRDNSKNTLYLQMNSLRAEDTATYYCAREGHNDWYFDLWGRGTLVTVSSGGGGSGGGGSGGGGSDIQMTQSPSFLSASVGDSVAITCRASQDISRYLAWYQQRPGKAPKLLIYDASNLQTGVPSRFSGSGSGTDFTFTITSLQPEDFGTYYCQQYDTLHPSFGPGTTVDIK", "binding result": "binds"}]}]}
